Measured values: patent publication US20180230213A1 (AVEO PHARMACEUTICALS, published 2018)

Assays:
Assay in all cases: BLI (Octet QK): rhNotch3 on the sensor, IgG in place of a Notch3 antibody, then the ligand in solution
rhJag1-Fc = biological target: T1, rhJag1-Fc (human, UniProt P78504 32-1046, limits assumed)
T1 construct: also called R&D Cat. No. 1277-JG-050
Experimental: (§1) The 4F11 antibody was tested for its ability to inhibit the binding of rhNotch3 binding to human Jag1, Jag2, DLL1 and DLL4. Binding measurements were made by bio-layer interferometry (BLI), using a FortéBio Octet® QK instrument (ForteBio, Menlo Park, Calif.). The ligands tested were rhJag1-Fc (R&D Cat. No. 1277-JG-050), rhJag2-Fc (R&D Cat. No. 1726-JG-050), rhDLL1-Fc (R&D Cat. No. 5026-DL-050), and His tagged rhDLL4 (R&D Cat. No. 1506-D4-050).
(§2) To determine the degree of inhibition of Notch3-ligand binding by antibody 4F11, the Octet sensors were loaded with recombinant human Notch3, and the antibody was allowed to bind, as described in Example 4. In positive control samples, a commercially available Notch3 polyclonal antibody capable of blocking ligand binding to recombinant human Notch3 (Notch3 Specific Control) was used instead of the 4F11 antibody. Then sensors were immersed in 500 ug/ml human IgG, to block non-specific binding. Ligands were prepared at a concentration of 400 nM in PBS containing 3% BSA, and were allowed to bind. The on-rate and off-rate for ligand binding were detected using the Octet QK instrument and software. The 4F11 antibody blocked binding of all four ligands to rhNotch3-Fc (FIG. 5A-5D).

rhJag2-Fc = biological target: T2, rhJag2-Fc (human, UniProt Q9Y219 27-1080, limits assumed)
T2 construct: also called R&D Cat. No. 1726-JG-050
T2 sequence (Q9Y219 27-1080 limits assumed): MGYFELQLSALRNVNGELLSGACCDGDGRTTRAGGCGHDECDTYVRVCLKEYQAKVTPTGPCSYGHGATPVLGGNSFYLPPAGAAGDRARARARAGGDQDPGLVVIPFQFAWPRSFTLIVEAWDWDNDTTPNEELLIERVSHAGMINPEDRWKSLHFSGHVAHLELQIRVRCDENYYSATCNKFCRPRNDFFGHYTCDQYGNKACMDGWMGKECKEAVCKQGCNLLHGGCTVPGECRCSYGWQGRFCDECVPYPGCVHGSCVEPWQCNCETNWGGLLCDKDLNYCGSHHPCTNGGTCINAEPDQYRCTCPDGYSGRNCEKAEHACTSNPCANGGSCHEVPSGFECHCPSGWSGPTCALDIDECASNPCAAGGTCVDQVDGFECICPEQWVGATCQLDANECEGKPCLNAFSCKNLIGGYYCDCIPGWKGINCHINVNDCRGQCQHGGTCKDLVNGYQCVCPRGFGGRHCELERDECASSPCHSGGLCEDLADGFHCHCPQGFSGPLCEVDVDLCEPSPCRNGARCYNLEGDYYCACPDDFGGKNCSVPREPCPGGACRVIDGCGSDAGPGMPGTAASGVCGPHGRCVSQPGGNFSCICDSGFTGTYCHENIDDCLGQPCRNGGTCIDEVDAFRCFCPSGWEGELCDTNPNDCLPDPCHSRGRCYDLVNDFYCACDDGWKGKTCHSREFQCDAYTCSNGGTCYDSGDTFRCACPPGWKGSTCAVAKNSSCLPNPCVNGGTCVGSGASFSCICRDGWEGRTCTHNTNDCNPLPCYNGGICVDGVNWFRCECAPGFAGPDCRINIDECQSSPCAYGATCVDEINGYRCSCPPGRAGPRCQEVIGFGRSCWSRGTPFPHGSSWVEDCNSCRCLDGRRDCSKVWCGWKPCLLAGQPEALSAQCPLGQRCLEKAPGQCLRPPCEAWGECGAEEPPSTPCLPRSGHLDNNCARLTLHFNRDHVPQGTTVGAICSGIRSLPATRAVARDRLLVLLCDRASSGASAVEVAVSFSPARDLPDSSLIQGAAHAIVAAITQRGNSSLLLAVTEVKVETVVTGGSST
Experimental: as §1, §2

His tagged rhDLL4 = biological target: T3, His tagged rhDLL4 (human, UniProt Q9NR61 27-524)
T3 construct: also called R&D Cat. No. 1506-D4-050
T3 sequence (Q9NR61 27-524 limits assumed): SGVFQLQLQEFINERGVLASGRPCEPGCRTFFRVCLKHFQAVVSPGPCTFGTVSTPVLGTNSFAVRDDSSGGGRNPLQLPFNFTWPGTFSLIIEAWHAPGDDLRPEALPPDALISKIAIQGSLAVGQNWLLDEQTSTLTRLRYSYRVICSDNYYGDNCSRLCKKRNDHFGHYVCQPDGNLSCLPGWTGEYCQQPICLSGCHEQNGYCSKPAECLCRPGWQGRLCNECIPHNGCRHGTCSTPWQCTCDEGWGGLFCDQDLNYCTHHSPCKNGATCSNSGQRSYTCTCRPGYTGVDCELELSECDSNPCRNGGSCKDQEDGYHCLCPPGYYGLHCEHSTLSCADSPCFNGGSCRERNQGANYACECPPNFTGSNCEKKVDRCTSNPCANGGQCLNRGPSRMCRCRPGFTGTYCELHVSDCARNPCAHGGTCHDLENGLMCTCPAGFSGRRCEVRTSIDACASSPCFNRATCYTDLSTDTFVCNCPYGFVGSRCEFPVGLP
Experimental: as §1, §2

Measured: binding result

B1: recombinant human Notch3 extracellular domain (containing EGF like domains 1-11) Fc fusion protein (Fc fusion, UniProt Q9UM47 40-467, looked up, not shown: a dimerising Fc or GST)
chain: APPCLDGSPCANGGRCTQLPSREAACLCPPGWVGERCQLEDPCHSGPCAGRGVCQSSVVAGTARFSCRCPRGFRGPDCSLPDPCLSSPCAHGARCSVGPDGRFLCSCPPGYQGRSCRSDVDECRVGEPCRHGGTCLNTPGSFRCQCPAGYTGPLCENPAVPCAPSPCRNGGTCRQSGDLTYDCACLPGFEGQNCEVNVDDCPGHRCLNGGTCVDGVNTYNCQCPPEWTGQFCTEDVDECQLQPNACHNGGTCFNTLGGHSCVCVNGWTGESCSQNIDDCATAVCFHGATCHDRVASFYCACPMGKTGLLCHLDDACVSNPCHEDAICDTNPVNGRAICTCPPGFTGGACDQDVDECSIGANPCEHLGRCVNTQGSFLCQCGRGYTGPRCETDVNECLSGPCRNQATCLDRIGQFTCICMAGFTGTYCE
notes: domain: EGF like domains 1-11; also called rhNotch3-Fc; rhNotch3
binds: all assays above
